Reference: paper PMC7725820, “Heme biosynthesis depends on previously unrecognized acquisition of iron-sulfur cofactors in human amino-levulinic acid dehydratase” (Nature Communications, 2020)

B1: MBP-ALAD C162A (enzyme, human, UniProt P13716 1-330, looked up)
chain: MQPQSVLHSGYFHPLLRAWQTATTTLNASNLIYPIFVTDVPDDIQPITSLPGVARYGVKRLEEMLRPLVEEGLRCVLIFGVPSRVPKDERGSAADSEESPAIEAIHLLRKTFPNLLVACDVCLCPYTSHGHCGLLSENGAFRAEESRQRLAEVALAYAKAGAQVVAPSDMMDGRVEAIKEALMAHGLGNRVSVMSYSAKFASCFYGPFRDAAKSSPAFGDRRCYQLPPGARGLALRAVDRDVREGADMLMVKPGMPYLDIVREVKDKHPDLPLAVYHVSGEFAMLWHGAQAGAFDLKAAVLEAMTAFRRAGADIIITYYTPQLLQWLKEE
notes: aminolevulinic acid dehydratase (ALAD), human; source: E. coli BL21(DE3), expressed along with the isc operon, purified anaerobically (amylose resin); not shown: MBP, N-terminal, kept
B2: MBP-ALAD K252M (enzyme, human, UniProt P13716 1-330, looked up)
chain: MQPQSVLHSGYFHPLLRAWQTATTTLNASNLIYPIFVTDVPDDIQPITSLPGVARYGVKRLEEMLRPLVEEGLRCVLIFGVPSRVPKDERGSAADSEESPAIEAIHLLRKTFPNLLVACDVCLCPYTSHGHCGLLSENGAFRAEESRQRLAEVALAYAKAGCQVVAPSDMMDGRVEAIKEALMAHGLGNRVSVMSYSAKFASCFYGPFRDAAKSSPAFGDRRCYQLPPGARGLALRAVDRDVREGADMLMVMPGMPYLDIVREVKDKHPDLPLAVYHVSGEFAMLWHGAQAGAFDLKAAVLEAMTAFRRAGADIIITYYTPQLLQWLKEE
notes: as for B1
B3: MBP-ALAD C223A (enzyme, human, UniProt P13716 1-330, looked up)
chain: MQPQSVLHSGYFHPLLRAWQTATTTLNASNLIYPIFVTDVPDDIQPITSLPGVARYGVKRLEEMLRPLVEEGLRCVLIFGVPSRVPKDERGSAADSEESPAIEAIHLLRKTFPNLLVACDVCLCPYTSHGHCGLLSENGAFRAEESRQRLAEVALAYAKAGCQVVAPSDMMDGRVEAIKEALMAHGLGNRVSVMSYSAKFASCFYGPFRDAAKSSPAFGDRRAYQLPPGARGLALRAVDRDVREGADMLMVKPGMPYLDIVREVKDKHPDLPLAVYHVSGEFAMLWHGAQAGAFDLKAAVLEAMTAFRRAGADIIITYYTPQLLQWLKEE
notes: as for B1
B4: MBP-ALAD C119A (enzyme, human, UniProt P13716 1-330, looked up)
chain: MQPQSVLHSGYFHPLLRAWQTATTTLNASNLIYPIFVTDVPDDIQPITSLPGVARYGVKRLEEMLRPLVEEGLRCVLIFGVPSRVPKDERGSAADSEESPAIEAIHLLRKTFPNLLVAADVCLCPYTSHGHCGLLSENGAFRAEESRQRLAEVALAYAKAGCQVVAPSDMMDGRVEAIKEALMAHGLGNRVSVMSYSAKFASCFYGPFRDAAKSSPAFGDRRCYQLPPGARGLALRAVDRDVREGADMLMVKPGMPYLDIVREVKDKHPDLPLAVYHVSGEFAMLWHGAQAGAFDLKAAVLEAMTAFRRAGADIIITYYTPQLLQWLKEE
notes: as for B1
B5: MBP-ALAD C124A (enzyme, human, UniProt P13716 1-330, looked up)
chain: MQPQSVLHSGYFHPLLRAWQTATTTLNASNLIYPIFVTDVPDDIQPITSLPGVARYGVKRLEEMLRPLVEEGLRCVLIFGVPSRVPKDERGSAADSEESPAIEAIHLLRKTFPNLLVACDVCLAPYTSHGHCGLLSENGAFRAEESRQRLAEVALAYAKAGCQVVAPSDMMDGRVEAIKEALMAHGLGNRVSVMSYSAKFASCFYGPFRDAAKSSPAFGDRRCYQLPPGARGLALRAVDRDVREGADMLMVKPGMPYLDIVREVKDKHPDLPLAVYHVSGEFAMLWHGAQAGAFDLKAAVLEAMTAFRRAGADIIITYYTPQLLQWLKEE
notes: as for B1
B6: MBP-ALAD C122A (enzyme, human, UniProt P13716 1-330, looked up)
chain: MQPQSVLHSGYFHPLLRAWQTATTTLNASNLIYPIFVTDVPDDIQPITSLPGVARYGVKRLEEMLRPLVEEGLRCVLIFGVPSRVPKDERGSAADSEESPAIEAIHLLRKTFPNLLVACDVALCPYTSHGHCGLLSENGAFRAEESRQRLAEVALAYAKAGCQVVAPSDMMDGRVEAIKEALMAHGLGNRVSVMSYSAKFASCFYGPFRDAAKSSPAFGDRRCYQLPPGARGLALRAVDRDVREGADMLMVKPGMPYLDIVREVKDKHPDLPLAVYHVSGEFAMLWHGAQAGAFDLKAAVLEAMTAFRRAGADIIITYYTPQLLQWLKEE
notes: as for B1
B7: MBP-ALAD Mut AFR-AAA (enzyme, human, UniProt P13716 1-330, looked up)
chain: MQPQSVLHSGYFHPLLRAWQTATTTLNASNLIYPIFVTDVPDDIQPITSLPGVARYGVKRLEEMLRPLVEEGLRCVLIFGVPSRVPKDERGSAADSEESPAIEAIHLLRKTFPNLLVACDVCLCPYTSHGHCGLLSENGAFRAEESRQRLAEVALAYAKAGCQVVAPSDMMDGRVEAIKEALMAHGLGNRVSVMSYSAKFASCFYGPFRDAAKSSPAFGDRRCYQLPPGARGLALRAVDRDVREGADMLMVKPGMPYLDIVREVKDKHPDLPLAVYHVSGEFAMLWHGAQAGAFDLKAAVLEAMTAAARAGADIIITYYTPQLLQWLKEE
notes: aminolevulinic acid dehydratase (ALAD), human, Ala306-Phe307-Arg308 motif replaced by alanines; source: E. coli BL21(DE3), expressed along with the isc operon, purified anaerobically (amylose resin); not shown: MBP, N-terminal, kept
B8: N-terminally MBP-tagged human ALAD, wild type (MBP-ALAD) (enzyme, UniProt P13716 1-330, looked up)
chain: MQPQSVLHSGYFHPLLRAWQTATTTLNASNLIYPIFVTDVPDDIQPITSLPGVARYGVKRLEEMLRPLVEEGLRCVLIFGVPSRVPKDERGSAADSEESPAIEAIHLLRKTFPNLLVACDVCLCPYTSHGHCGLLSENGAFRAEESRQRLAEVALAYAKAGCQVVAPSDMMDGRVEAIKEALMAHGLGNRVSVMSYSAKFASCFYGPFRDAAKSSPAFGDRRCYQLPPGARGLALRAVDRDVREGADMLMVKPGMPYLDIVREVKDKHPDLPLAVYHVSGEFAMLWHGAQAGAFDLKAAVLEAMTAFRRAGADIIITYYTPQLLQWLKEE
notes: aminolevulinic acid dehydratase (ALAD), human, wild type; One [Fe4S4] cluster per monomer when purified anaerobically; The three cofactor states (Fe-S, apo, zinc) are told apart by the assay; the ~480 kD hexamer fits it; also called ALAD WT; [Fe4S4]-ALAD; source: E. coli BL21(DE3), expressed along with the A. vinelandii isc operon, purified anaerobically (amylose resin); also purified …
B9: MBP-ALAD C132A (enzyme, human, UniProt P13716 1-330, looked up)
chain: MQPQSVLHSGYFHPLLRAWQTATTTLNASNLIYPIFVTDVPDDIQPITSLPGVARYGVKRLEEMLRPLVEEGLRCVLIFGVPSRVPKDERGSAADSEESPAIEAIHLLRKTFPNLLVACDVCLCPYTSHGHAGLLSENGAFRAEESRQRLAEVALAYAKAGCQVVAPSDMMDGRVEAIKEALMAHGLGNRVSVMSYSAKFASCFYGPFRDAAKSSPAFGDRRCYQLPPGARGLALRAVDRDVREGADMLMVKPGMPYLDIVREVKDKHPDLPLAVYHVSGEFAMLWHGAQAGAFDLKAAVLEAMTAFRRAGADIIITYYTPQLLQWLKEE
notes: as for B1

Assays:
[1] = biological target: the molecule itself; assay: native gel or EMSA; NativePAGE Bis-Tris gel; MBP-ALAD proteins expressed along with the isc operon in E. coli and purified anaerobically
[2] = biological target: the molecule itself; assay: native gel or EMSA; NativePAGE Bis-Tris gel; aerobically purified, EDTA-treated metal-free wild-type ALAD (aero-apo-ALAD WT)

| Protein | stoichiometry N [1] | stoichiometry N [2] |
| --- | --- | --- |
| B1 | 6 | – |
| B2 | 6 | – |
| B3 | 6 | – |
| B4 | 6 | – |
| B5 | 6 | – |
| B6 | 6 | – |
| B7 | 6 | – |
| B8 | – | 6 |
| B9 | 6 | – |
